This is an account of results in patent WO2011147834A1 (dated 2011).

What is called EC50 is the midpoint of the concentration-response curve. Low readings indicate greater potency, high ones weaker potency.

In assay [1] the target is T1, rabbit CD19 (rabbit, UniProt G1TWR4 20-543).
T1 construct: whole, on cells
T1 sequence: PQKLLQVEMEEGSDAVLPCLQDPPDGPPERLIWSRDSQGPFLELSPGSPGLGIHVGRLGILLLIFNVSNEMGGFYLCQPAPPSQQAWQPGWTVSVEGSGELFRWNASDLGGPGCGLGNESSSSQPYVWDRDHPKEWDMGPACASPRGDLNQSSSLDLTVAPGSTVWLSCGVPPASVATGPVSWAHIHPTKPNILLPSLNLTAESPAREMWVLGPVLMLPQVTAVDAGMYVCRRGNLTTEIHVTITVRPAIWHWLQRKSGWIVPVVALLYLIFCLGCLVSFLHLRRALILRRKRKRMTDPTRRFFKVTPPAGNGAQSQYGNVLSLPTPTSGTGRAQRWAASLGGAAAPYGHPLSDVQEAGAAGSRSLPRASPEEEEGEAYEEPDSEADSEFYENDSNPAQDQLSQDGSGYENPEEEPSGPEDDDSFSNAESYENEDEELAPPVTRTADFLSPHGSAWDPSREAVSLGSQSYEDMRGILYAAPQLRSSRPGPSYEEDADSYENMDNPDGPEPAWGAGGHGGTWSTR
As to the kind of experiment: FACS on B-cells of the respective species.

The target in assay [2] is T2, mouse CD19 (mouse, UniProt P25918 19-547).
T2 construct: whole, on cells
T2 sequence (looked up): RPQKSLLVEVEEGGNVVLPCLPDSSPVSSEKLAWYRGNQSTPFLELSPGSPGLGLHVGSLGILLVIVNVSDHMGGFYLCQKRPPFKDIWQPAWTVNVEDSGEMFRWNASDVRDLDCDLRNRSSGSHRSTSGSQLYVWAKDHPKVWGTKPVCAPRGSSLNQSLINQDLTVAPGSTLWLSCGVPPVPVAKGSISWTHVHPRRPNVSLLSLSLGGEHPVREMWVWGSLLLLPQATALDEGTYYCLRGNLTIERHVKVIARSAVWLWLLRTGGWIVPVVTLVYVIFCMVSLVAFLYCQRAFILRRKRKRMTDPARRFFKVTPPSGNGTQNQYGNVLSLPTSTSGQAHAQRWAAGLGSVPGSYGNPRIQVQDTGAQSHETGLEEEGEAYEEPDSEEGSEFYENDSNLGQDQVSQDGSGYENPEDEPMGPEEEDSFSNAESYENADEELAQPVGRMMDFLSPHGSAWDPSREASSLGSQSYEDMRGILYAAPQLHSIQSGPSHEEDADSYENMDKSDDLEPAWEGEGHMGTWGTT
Put plainly: FACS on B-cells of the respective species.

Assay [3] deals with T3, cynomolgus CD19 (cynomolgus, UniProt A0A2K5W8L9 20-557).
T3 construct: whole, on cells
T3 sequence: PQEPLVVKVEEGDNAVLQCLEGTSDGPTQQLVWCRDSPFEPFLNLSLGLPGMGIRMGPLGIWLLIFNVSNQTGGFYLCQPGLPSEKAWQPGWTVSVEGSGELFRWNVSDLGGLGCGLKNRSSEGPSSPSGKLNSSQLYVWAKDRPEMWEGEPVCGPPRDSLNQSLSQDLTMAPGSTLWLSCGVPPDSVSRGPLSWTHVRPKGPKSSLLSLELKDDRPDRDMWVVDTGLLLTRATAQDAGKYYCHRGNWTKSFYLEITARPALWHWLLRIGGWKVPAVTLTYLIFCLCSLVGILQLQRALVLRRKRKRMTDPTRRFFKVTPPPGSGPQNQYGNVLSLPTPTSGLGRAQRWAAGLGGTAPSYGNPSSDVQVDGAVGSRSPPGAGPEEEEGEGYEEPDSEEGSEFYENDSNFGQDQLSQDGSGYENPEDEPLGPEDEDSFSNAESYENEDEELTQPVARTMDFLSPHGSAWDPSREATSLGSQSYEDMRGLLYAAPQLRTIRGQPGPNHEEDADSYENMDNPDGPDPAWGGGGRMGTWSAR
Put plainly: FACS on B-cells of the respective species.

The target in assay [4] is T4, human B-lymphocyte antigen CD19 (human, UniProt P15391 20-556).
T4 construct: whole, on cells; Always presented on cells; No soluble CD19 was used; also called hCD19; human CD 19
T4 sequence (looked up): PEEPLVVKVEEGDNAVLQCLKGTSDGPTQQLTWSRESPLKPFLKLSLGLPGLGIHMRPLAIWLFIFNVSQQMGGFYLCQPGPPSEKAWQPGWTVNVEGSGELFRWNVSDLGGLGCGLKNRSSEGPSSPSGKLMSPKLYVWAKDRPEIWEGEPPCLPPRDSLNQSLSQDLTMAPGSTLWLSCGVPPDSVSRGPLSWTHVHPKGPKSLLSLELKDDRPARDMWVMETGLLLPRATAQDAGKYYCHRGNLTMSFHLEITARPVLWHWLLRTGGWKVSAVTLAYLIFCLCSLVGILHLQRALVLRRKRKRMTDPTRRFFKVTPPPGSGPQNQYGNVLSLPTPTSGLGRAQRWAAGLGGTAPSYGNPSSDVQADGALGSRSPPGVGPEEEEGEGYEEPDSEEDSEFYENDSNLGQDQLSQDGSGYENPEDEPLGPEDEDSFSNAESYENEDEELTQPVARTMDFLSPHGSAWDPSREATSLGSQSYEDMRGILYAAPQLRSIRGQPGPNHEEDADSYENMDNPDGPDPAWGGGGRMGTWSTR
As to the kind of experiment: FACS binding on Daudi cells, goat anti-mouse RPE detection. Background: Flow cytometry measures light scatter and fluorescence of single cells or particles in a stream.

The target in assay [5] is T4, human B-lymphocyte antigen CD19. Put plainly: cell-based or functional assay.
For assay [6] the target is unchanged. Put plainly: cell ELISA on human CD19-transfected NIH3T3 cells against untransfected NIH3T3 cells.

Several values for one entry are separate records, joined by “and”; a condition that tells them apart may be missing. Equal entries are not always repeated.

B1: Mab381 (antibody, V domains shown)
VH: QVQLQQSGAELVRPGSSMKISCKASGYAFSSYWMNWVKQRPGQGLEWIGQIYPGDGDINYSGKFKGKVTLTADKSSSTAYMQLSSLTSEDSAVYFCARTITTVVGYVMDYWGQGTSVTVSS
VL: DIVMTQSHKFMSTSVGDRVSITCKASQDVGTVVAWYQQKPGQSPKLLIYWASTRHTGVPDRFTGSGSGTDFTLTISNVQSEDLADYFCQQYSSYPYTFGGGTKLEIKR
notes: Murine monoclonal antibody purified from hybridoma 8C3
Consider B1, for which the binding result in assay [1], in assay [2] and in assay [3] was “no binding” in each case. For the same molecule, the EC50 in assay [4] is 1.45 nM. For the same molecule, the “EC50 of inhibition of Ca2+ influx in anti-IgM activated Ramos cells” value in assay [5] is 0.37 nM and 56 ng/ml. The “ratio OD NIH3T3 CD 19 to OD NIH3T3 untransfected” value in assay [6] was 11.4.
